# Experimental data as given in publication PMC7665192, “A natriuretic peptide from Arabidopsis thaliana (AtPNP-A) can modulate catalase 2 activity” (Scientific Reports, 2020).
# Positions of bridges follow the written chain, without caps; N, C: chain ends. No end group written: not given here.
# T1: bovine liver catalase (CAT) (bovine, UniProt P00432 1-527)
# T1 construct: catalase from bovine liver, Sigma C-40; also called bovine CAT; CAT from bovine liver; source: bought: Sigma (C-40)
# T1 sequence (looked up): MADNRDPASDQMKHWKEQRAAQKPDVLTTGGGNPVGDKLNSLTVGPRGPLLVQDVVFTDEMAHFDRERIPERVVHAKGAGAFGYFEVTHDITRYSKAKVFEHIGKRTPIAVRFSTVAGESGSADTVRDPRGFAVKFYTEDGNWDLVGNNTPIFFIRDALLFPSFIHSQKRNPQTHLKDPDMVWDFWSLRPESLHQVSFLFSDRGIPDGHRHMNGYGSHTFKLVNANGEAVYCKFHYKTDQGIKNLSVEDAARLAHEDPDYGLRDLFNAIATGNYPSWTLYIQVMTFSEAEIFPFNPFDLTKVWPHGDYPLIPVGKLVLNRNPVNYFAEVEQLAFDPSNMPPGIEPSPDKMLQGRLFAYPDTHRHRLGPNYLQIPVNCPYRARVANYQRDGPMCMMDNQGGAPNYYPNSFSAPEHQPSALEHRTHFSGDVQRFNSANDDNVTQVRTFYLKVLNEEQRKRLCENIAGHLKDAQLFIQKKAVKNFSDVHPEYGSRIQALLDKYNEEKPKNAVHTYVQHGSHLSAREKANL
# B1: synthetic peptide containing the active region of AtPNP-A (amino acids 33-66) (peptide)
# peptide: PYTRSACYGTQRETLVVGVKNNLWQNGRACGRRY
# modifications: disulfide 7-30 (inferred); also: synthesized with or without C-terminal biotin
# notes: active region of Arabidopsis thaliana plant natriuretic peptide A (AtPNP-A), amino acids 33-66; also called pAtPNP-A; AtPNP-A peptide; source: synthetic peptide (GenScript, purity > 95%)
# B2: rAtPNP-A: N-terminally 6xHis-tagged AtPNP-A expressed in BL21 (DE3) One Shot E. coli cells (protein)
# chain: AQGKAVYYDPPYTRSACYGTQRETLVVGVKNNLWQNGRACGRRYRVRCIGATYNFDRACTGRTVDVKVVDFCREPCNGDLNLSRDAFRVIANTDAGNIRVVYTPI
# modifications: left off: His6, N-terminal, state not stated
# notes: N-terminally 6xHis-tagged AtPNP-A expressed in BL21 (DE3) One Shot E. coli cells
# B3: NeYFP-fused AtPNP-A: N-terminal (NeYFP) fragment of eYFP followed by AtPNP-A coding region (protein)
# chain: B2 chain
# modifications: left off: NeYFP (N-terminal fragment of eYFP), N-terminal, kept
# B4: CeYFP-AtPNP-A: C-terminal (CeYFP) fragment of eYFP followed by AtPNP-A coding region (protein)
# chain: B2 chain
# modifications: left off: CeYFP (C-terminal fragment of eYFP), N-terminal, kept
# Columns and labels:
# CAT2 transcript = settings: exogenous application; cited from earlier work
# Description: It is also conceivable that modulation of CAT2 activity by AtPNP-A may not only have implications for plant biotic stress tolerance but may also result in changes in responses to abiotic stress. Activity of CAT2 is required for decomposition of photorespiration-derived H2O2 preventing redox perturbation under ambient growth conditions[59] while CAT2 deficiency causes a defective photorespiration phenotype including suppressed growth[58],[59] and accumulation of H2O2 in leaves. During senescence suppression of CAT2 function, mediated by G-BOX BINDING FACTOR1 (GBF1)[76], decreases CAT2 activ ...
# [1] = biological target: T1, bovine liver catalase (CAT); experiment: SPR; Biacore T100, 20 °C; bovine liver CAT immobilised by amine coupling on a CM5 chip; pAtPNP-A at 3.78 μM and consecutive twofold dilutions, 11 injections, flow 100 μL/min; regeneration with glycine pH 2.0; kinetic fit with mass transfer term; settings: both partners purified
# [2] = test system: A. thaliana (Col-0) mesophyll cell protoplasts; experiment: Mesophyll cell protoplast swelling (volume); type: cell-based, Arabidopsis thaliana; settings: 100 nM peptide or 1 μg mL^−1 rAtPNP-A, 0.4 M mannitol, 20 min, room temperature, n = 50, P < 0.0001
# Description: Peptides containing amino acid sequence of the active region of AtPNP-A and corresponding scrambled peptides, having the same amino acid composition but in a randomized order (Fig. 1a), with or without C-terminal biotin tag, were synthesized by GenScript (Piscataway, USA) at the purity level > 95% verified with HPLC and their biological activity was verified as described previously.
# Figure 1 Biologically active peptide containing the active region of AtPNP-A protein binds to CAT2. (a) Domain organization of AtPNP-A and the amino acid sequences of C-terminally biotinylated peptides used in affinity chromatography-based experiments—a peptide containing the active site of AtPNP-A (indicated as pAtPNP-A) or the corresponding scrambled peptide (indicated as pScr). Cysteine residues forming a disulfide bond, characteristic to natriuretic peptide (NP)-like molecules, are underlined. SP, signal peptide. (b) Assaying biological activity of the AtPNP-A peptide (pAtPNP-A) and purified recombinant protein (rAtPNP-A). […] In each treatment, 50 randomly selected protoplasts with diameter > 20 µm were included in quantitative analysis (scale bar = 20 µm). Protoplast volume was measured and the data obtained from an exemplar experiment are plotted. […]
# CAT = experiment: Total CAT activity in protein extracted from WT seedlings; type: biochemical, Arabidopsis thaliana; settings: 1 nM
# Experimental: (§1) Enzymatic activity of CAT isozymes and total CAT activities of protein extracted from WT and atpnp-a or cat2-2 mutant lines, when indicated sprayed with 1 nM pAtPNP-A or pScr 20 min before harvesting, were determined zymographically and spectrophotometrically, as described in[56]. Relative quantification of intensity of bands corresponding to different CAT isoforms was performed with ImageJ version 1.48 (https://imagej.nih.gov/ij/). Enzymatic activity of the rCAT2 in the presence of absence of 100 nM rAtPNP-A, pAtPNP-A or pScr were determined with the use of Amplex Red catalase assay kit (Invitrogen) according to the manufacturer’s instructions.
# (§2) Figure 3 AtPNP-A directly interacts with CAT2 to modulate its enzymatic activity in vitro. (a) Zymogram depicting changes in the enzymatic activity of CAT isoforms extracted from wild type (WT) or cat2-2 knockout mutant seedlings in response to 1 nM pAtPNP-A or pScr. Densitometric semi-quantification of bands corresponding to CAT2, normalized to the loading control (dark-coloured band on zymogram) for WT samples treated with 1 nM pAtPNP-A or pScr (mean ± SD, Student’s t-test, n = 3, P < 0.05). […] (b) Total CAT activity in protein extracted from WT seedlings assayed with Amplex Red catalase assay kit in the presence of 1 nM pAtPNP-A, rAtPNP-A, or pScr. […] (c) Enzymatic activity of rCAT2 in the presence of 100 nM pAtPNP-A, rAtPNP-A, or pScr.
# rCAT2 [3] = experiment: Enzymatic activity of rCAT2, Amplex Red catalase assay; type: biochemical, Arabidopsis thaliana; settings: 100 nM, Amplex Red catalase assay kit; three independent experiments, P < 0.01
# Experimental: as §1, §2
# rCAT2 [4] = experiment: SPR of CAT2 and AtPNP-A recombinant proteins, CM5 chip, both configurations; type: binding, Arabidopsis thaliana; settings: amine coupling, 20 °C
# Experimental: N-terminally 6xHis-tagged AtPNP-A and CAT2 proteins were expressed in BL21 (DE3) One Shot E. coli cells (Life Technologies), purified by affinity chromatography with Ni–NTA beads (Qiagen) and HisTrap HP column (GE Healthcare Lifesciences) as described in[21]. The purity of preparations was verified on 12.5% SDS-PAGE, stained with Coomassie Brilliant Blue (Bio-Rad). Protein identities were confirmed in MS analysis, and protein concentration was determined according to the method of Bradford using BSA as a standard.
# SPR experiments were performed at 20 °C on Biacore T100 instrument operated using Biacore T100 control software (version 2.0.2, GE Healthcare Lifesciences) using Series S CM5 or NTA sensor chips as described in[21]. Kinetic analyses were performed at the flow of 100 μL min^−1 with pAtPNP-A (at 3.78 μM and consecutive twofold dilutions; 11 injections included) employed as a ligand and bovine liver CAT (C-40; Sigma) used as an analyte and immobilized on the active surface of the Series S CM5 sensor chip with amine coupling kit, while the surface regeneration was done with solution of glycine, pH 2.0, and the final sensorgram was generated with Scrubber (BioLogic Software Pty Ltd).
# Supplementary Figure S3. In vitro association of AtPNP-A and CAT2 recombinant proteins.
# (a) Recombinant protein preparations used in SPR analyses. […]
# CAT2 = experiment: Bimolecular fluorescence complementation (BiFC); type: cell-based, Arabidopsis thaliana; settings: chloroplasts of tobacco leaf protoplasts, NeYFP/CeYFP fusions, mean ± SEM, n = 30, P < 0.0001
# Description: The full-length A. thaliana AtPNP-A (At2g18660) coding region entry plasmid pENTRYAtPNP-A[46] and pCR8/GW-TOPOCAT2 were recombined separately with both pSITE-nEYFP-C1 [GenBank Accession Number GU734651] and pSITE-cEYFP-C1 [GenBank Accession Number GU734652] to create pNeYFP-AtPNP-A, pCeYFP-AtPNP-A, pNeYFP-CAT2 and pCeYFP-CAT2, respectively. Each plasmid has either the N-terminal (NeYFP) or C-terminal (CeYFP) fragment of eYFP followed by either AtPNP-A or CAT2 coding region driven by the 35S plant expression promoter. After sequence was confirmed each plasmid was transformed separately into Agrobacterium tumefaciens strain GV3101 (pMP90). Tobacco leaves were infiltrated as previously described in[50]. Briefly, A. tumefaciens strains grown in 2YT medium were harvested by centrifugation and resuspended in infiltration medium (10 mM MES pH 5.6, 10 mM MgCl2, 150 µM acetosyringone) to a final OD600 of 0.2. Equal volumes of infiltration media containing relevant BiFC strains were mixed and infiltrated into the underside of tobacco leaves using a needleless syringe. Leaves were harvested after 3 days to isolate protoplasts following[51] and then immediately imaged.
# BiFC images were captured at the La Trobe University LIMS BioImaging Facility using a LSM 510 confocal laser scanning microscope (Zeiss), with a × 40/1.2 water immersion objective. The natural red autofluorescence of chlorophyll was used as a marker for chloroplasts. Excitation/emission wavelengths were 488/505–530 nm for YFP and 561/650 nm long pass for red fluorescence. At least three images containing one or more protoplasts were taken for each of the plasmid construct combinations. Each image captured three separate filter scans, including YFP, red fluorescence and bright field. Post-processing of images was performed with ImageJ version 1.48 software (https://imagej.nih.gov/ij/). For each image the contrast for each panel was set at automatic contrast. A merged image was generated for reference with a 10 µm scale bar. The red fluorescence only panel was used to encircle ten chloroplasts as region of interest (ROI), then the YFP fluorescence (BiFC) calculated for each ROI was divided by the red fluorescence calculated for the same ROI. All BiFC/red fluorescence points were plotted using GraphPadPrism7 (GraphPadSoftware). Mean and standard error were calculated for each BiFC combination. All statistical analyses were performed using GraphPadPrism7.
# Figure 4 AtPNP-A interacts with CAT2 in vivo. […] Exemplar merged images of protoplasts isolated from a leaf infiltrated with different combinations of N- or C-terminally tagged CAT2 and AtPNP-A are shown. (g) BiFC/Red fluorescence chloroplast analysis with mean ± SEM in pink.
molecule,measurement,setting,value
O=C(O)c1ccccc1O [SA],CAT2 transcript,CAT2 transcript,Increases in CAT2 transcript
B1,koff,[1],0.000941 s⁻¹
same,kon,[1],10900 M⁻¹ s⁻¹
B2,Protoplast swelling response (volume),[2],comparable to that elicited by an equimolar amount of the recombinant AtPNP-A (rAtPNP-A)
same,Total CAT activity of protein extracts,"CAT; WT seedling protein, Amplex Red kit, mean ± SD, n = 3, P < 0.05",elevated total CAT activity
same,H2O2 breakdown by WT seedling protein extract,"CAT; total protein extracted from WT seedlings, n = 3",more rapid H2O2 breakdown
same,In vitro enzymatic activity of rCAT2,rCAT2 [3],significantly enhanced
same,SPR binding of recombinant AtPNP-A to CAT2,rCAT2 [4],bind specifically to CAT2
B3,"BiFC / Red fluorescence signal, interaction with CAT2",CAT2,Lower BiFC/fluorescence signal
B4,"BiFC / Red fluorescence signal, interaction with CAT2",CAT2,significantly higher
same,"BiFC / Red fluorescence signal, interaction with CAT2",CAT2; listed as CeYFP-tagged AtPNP-A,greatest BiFC / Red fluorescence signal
